System: Escherichia coli TOP10
Assay: shrunken log2 fold change of peptide-encoding DNA abundance (4.5 h post-induction vs induction); higher = less antimicrobial activity (less host growth inhibition)
Details: time post-induction: 4.5 h; library: site-saturation at positions 5, 18, 19, 20
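Further: peptides expressed intracellularly from a pBAD plasmid library in pooled LB shake-flask culture, induced with 0.3% L-arabinose, DNA abundance read by NGS, three biological replicates, DESeq2 with apeglm shrinkage.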

Row | Sequence | shrunken log2 fold change
1 | RRIRKRPPRLPRPRPRPQRYPRP | 0.132
2 | RRIRKRPPRLPRPRPRPQSMPRP | -0.00568
3 | RRIRKRPPRLPRPRPRPQTGPRP | 0.0141
4 | RRIRKRPPRLPRPRPRPQTLPRP | 0.0931
5 | RRIRKRPPRLPRPRPRPQVDPRP | 0.288
6 | RRIRKRPPRLPRPRPRPQVPPRP | 0.325
7 | RRIRKRPPRLPRPRPRPQWQPRP | 0.0827
8 | RRIRKRPPRLPRPRPRPQYIPRP | 0.102
9 | RRIRKRPPRLPRPRPRPQYSPRP | -0.906
10 | RRIRKRPPRLPRPRPRPRAPPRP | 0.538
11 | RRIRKRPPRLPRPRPRPRCGPRP | 0.451
12 | RRIRKRPPRLPRPRPRPRDGPRP | 0.822
13 | RRIRKRPPRLPRPRPRPREYPRP | 0.261
14 | RRIRKRPPRLPRPRPRPRFHPRP | 0.077
15 | RRIRKRPPRLPRPRPRPRFPPRP | 0.647
16 | RRIRKRPPRLPRPRPRPRFSPRP | 0.17
17 | RRIRKRPPRLPRPRPRPRGLPRP | 0.41
18 | RRIRKRPPRLPRPRPRPRHQPRP | 1.82
19 | RRIRKRPPRLPRPRPRPRIRPRP | 0.344
20 | RRIRKRPPRLPRPRPRPRISPRP | -0.258
21 | RRIRKRPPRLPRPRPRPRIYPRP | -0.0634
22 | RRIRKRPPRLPRPRPRPRKFPRP | 0.106
23 | RRIRKRPPRLPRPRPRPRKGPRP | -0.0408
24 | RRIRKRPPRLPRPRPRPRKHPRP | 0.328
25 | RRIRKRPPRLPRPRPRPRKTPRP | 0.303

Row | Sequence | shrunken log2 fold change
26 | RRIRKRPPRLPRPRPRPRKWPRP | 0.448
27 | RRIRKRPPRLPRPRPRPRLVPRP | 0.338
28 | RRIRKRPPRLPRPRPRPRLWPRP | 1.01
29 | RRIRKRPPRLPRPRPRPRNAPRP | 0.57
30 | RRIRKRPPRLPRPRPRPRPLPRP | 0.73
31 | RRIRKRPPRLPRPRPRPRPMPRP | 0.585
32 | RRIRKRPPRLPRPRPRPRPSPRP | 0.585
33 | RRIRKRPPRLPRPRPRPRQQPRP | 0.395
34 | RRIRKRPPRLPRPRPRPRRCPRP | 0.444
35 | RRIRKRPPRLPRPRPRPRSMPRP | -0.164
36 | RRIRKRPPRLPRPRPRPRTKPRP | 1.08
37 | RRIRKRPPRLPRPRPRPRWIPRP | 0.112
38 | RRIRKRPPRLPRPRPRPRWMPRP | 0.273
39 | RRIRKRPPRLPRPRPRPRYWPRP | 0.173
40 | RRIRKRPPRLPRPRPRPSAHPRP | 0.164
41 | RRIRKRPPRLPRPRPRPSCFPRP | 0.109
42 | RRIRKRPPRLPRPRPRPSCHPRP | -0.132
43 | RRIRKRPPRLPRPRPRPSDNPRP | 0.0936
44 | RRIRKRPPRLPRPRPRPSDRPRP | 0.0691
45 | RRIRKRPPRLPRPRPRPSDTPRP | 0.322
46 | RRIRKRPPRLPRPRPRPSEIPRP | 0.157
47 | RRIRKRPPRLPRPRPRPSFHPRP | -0.219
48 | RRIRKRPPRLPRPRPRPSHDPRP | -0.203
49 | RRIRKRPPRLPRPRPRPSICPRP | 0.242
50 | RRIRKRPPRLPRPRPRPSIPPRP | -1.13

Row | Sequence | shrunken log2 fold change
51 | RRIRKRPPRLPRPRPRPSLGPRP | 0.343
52 | RRIRKRPPRLPRPRPRPSLVPRP | 0.174
53 | RRIRKRPPRLPRPRPRPSNPPRP | -0.0952
54 | RRIRKRPPRLPRPRPRPSNTPRP | -0.231
55 | RRIRKRPPRLPRPRPRPSPCPRP | 0.13
56 | RRIRKRPPRLPRPRPRPSPDPRP | 0.344
57 | RRIRKRPPRLPRPRPRPSPEPRP | 0.525
58 | RRIRKRPPRLPRPRPRPSQGPRP | 0.0922
59 | RRIRKRPPRLPRPRPRPSRVPRP | 0.24
60 | RRIRKRPPRLPRPRPRPSTLPRP | 0.252
61 | RRIRKRPPRLPRPRPRPSWGPRP | 0.00315
62 | RRIRKRPPRLPRPRPRPSWIPRP | -0.487
63 | RRIRKRPPRLPRPRPRPSYSPRP | -0.413
64 | RRIRKRPPRLPRPRPRPTAGPRP | 0.581
65 | RRIRKRPPRLPRPRPRPTCTPRP | 0.314
66 | RRIRKRPPRLPRPRPRPTEHPRP | 0.279
67 | RRIRKRPPRLPRPRPRPTFSPRP | 0.148
68 | RRIRKRPPRLPRPRPRPTFWPRP | 0.36
69 | RRIRKRPPRLPRPRPRPTGEPRP | 0.954
70 | RRIRKRPPRLPRPRPRPTGTPRP | 0.563
71 | RRIRKRPPRLPRPRPRPTHKPRP | 0.658
72 | RRIRKRPPRLPRPRPRPTIAPRP | 0.541
73 | RRIRKRPPRLPRPRPRPTICPRP | -0.0104
74 | RRIRKRPPRLPRPRPRPTIKPRP | 0.104
75 | RRIRKRPPRLPRPRPRPTKMPRP | 0.229

Row | Sequence | shrunken log2 fold change
76 | RRIRKRPPRLPRPRPRPTMNPRP | -0.00264
77 | RRIRKRPPRLPRPRPRPTMVPRP | 0.27
78 | RRIRKRPPRLPRPRPRPTPCPRP | 0.692
79 | RRIRKRPPRLPRPRPRPTRTPRP | 0.951
80 | RRIRKRPPRLPRPRPRPTSKPRP | 0.443
81 | RRIRKRPPRLPRPRPRPTSRPRP | 0.159
82 | RRIRKRPPRLPRPRPRPTTAPRP | 0.271
83 | RRIRKRPPRLPRPRPRPTTDPRP | 0.385
84 | RRIRKRPPRLPRPRPRPTTLPRP | 0.0155
85 | RRIRKRPPRLPRPRPRPTVQPRP | 0.777
86 | RRIRKRPPRLPRPRPRPTWSPRP | 0.278
87 | RRIRKRPPRLPRPRPRPTWWPRP | 0.0302
88 | RRIRKRPPRLPRPRPRPTYLPRP | -0.201
89 | RRIRKRPPRLPRPRPRPVAEPRP | 0.973
90 | RRIRKRPPRLPRPRPRPVANPRP | 0.0525
91 | RRIRKRPPRLPRPRPRPVAPPRP | 0.528
92 | RRIRKRPPRLPRPRPRPVASPRP | 0.533
93 | RRIRKRPPRLPRPRPRPVDTPRP | 0.0388
94 | RRIRKRPPRLPRPRPRPVEQPRP | 0.12
95 | RRIRKRPPRLPRPRPRPVFGPRP | 0.176
96 | RRIRKRPPRLPRPRPRPVFTPRP | -0.0937
97 | RRIRKRPPRLPRPRPRPVGCPRP | 0.266
98 | RRIRKRPPRLPRPRPRPVICPRP | 0.115
99 | RRIRKRPPRLPRPRPRPVIEPRP | 0.15
100 | RRIRKRPPRLPRPRPRPVIFPRP | 0.265

Row | Sequence | shrunken log2 fold change
101 | RRIRKRPPRLPRPRPRPVIVPRP | -0.0233
102 | RRIRKRPPRLPRPRPRPVKNPRP | 0.00783
103 | RRIRKRPPRLPRPRPRPVKSPRP | 0.155
104 | RRIRKRPPRLPRPRPRPVKYPRP | 0.221
105 | RRIRKRPPRLPRPRPRPVLVPRP | -0.0465
106 | RRIRKRPPRLPRPRPRPVMRPRP | 0.74
107 | RRIRKRPPRLPRPRPRPVNSPRP | 0.0157
108 | RRIRKRPPRLPRPRPRPVPSPRP | -0.156
109 | RRIRKRPPRLPRPRPRPVPTPRP | 0.916
110 | RRIRKRPPRLPRPRPRPVQPPRP | 0.0838
111 | RRIRKRPPRLPRPRPRPVRRPRP | 0.377
112 | RRIRKRPPRLPRPRPRPVRTPRP | 0.583
113 | RRIRKRPPRLPRPRPRPVVAPRP | 0.876
114 | RRIRKRPPRLPRPRPRPVVCPRP | 0.126
115 | RRIRKRPPRLPRPRPRPVVMPRP | 3.16
116 | RRIRKRPPRLPRPRPRPVWRPRP | 0.0611
117 | RRIRKRPPRLPRPRPRPVYVPRP | -0.0394
118 | RRIRKRPPRLPRPRPRPWCDPRP | -0.377
119 | RRIRKRPPRLPRPRPRPWDFPRP | 0.953
120 | RRIRKRPPRLPRPRPRPWEIPRP | -0.00947
121 | RRIRKRPPRLPRPRPRPWELPRP | 0.221
122 | RRIRKRPPRLPRPRPRPWFSPRP | -0.329
123 | RRIRKRPPRLPRPRPRPWHAPRP | -0.0686
124 | RRIRKRPPRLPRPRPRPWHHPRP | -0.197
125 | RRIRKRPPRLPRPRPRPWHPPRP | 0.143

Row | Sequence | shrunken log2 fold change
126 | RRIRKRPPRLPRPRPRPWHSPRP | 0.0422
127 | RRIRKRPPRLPRPRPRPWHTPRP | 0.0104
128 | RRIRKRPPRLPRPRPRPWHVPRP | -1.06
129 | RRIRKRPPRLPRPRPRPWNWPRP | -0.00973
130 | RRIRKRPPRLPRPRPRPWPCPRP | 0.161
131 | RRIRKRPPRLPRPRPRPWPMPRP | 0.915
132 | RRIRKRPPRLPRPRPRPWRMPRP | 0.0773
133 | RRIRKRPPRLPRPRPRPWRRPRP | 0.0332
134 | RRIRKRPPRLPRPRPRPWSKPRP | 0.00888
135 | RRIRKRPPRLPRPRPRPWTMPRP | 0.00233
136 | RRIRKRPPRLPRPRPRPWTNPRP | -0.0144
137 | RRIRKRPPRLPRPRPRPWTRPRP | -0.0844
138 | RRIRKRPPRLPRPRPRPWTSPRP | -0.113
139 | RRIRKRPPRLPRPRPRPWVCPRP | 0.324
140 | RRIRKRPPRLPRPRPRPWVDPRP | 0.572
141 | RRIRKRPPRLPRPRPRPWWLPRP | 0.252
142 | RRIRKRPPRLPRPRPRPWYDPRP | -0.153
143 | RRIRKRPPRLPRPRPRPYAFPRP | -0.111
144 | RRIRKRPPRLPRPRPRPYCCPRP | -0.237
145 | RRIRKRPPRLPRPRPRPYCHPRP | -0.469
146 | RRIRKRPPRLPRPRPRPYCMPRP | -0.461
147 | RRIRKRPPRLPRPRPRPYDCPRP | -0.171
148 | RRIRKRPPRLPRPRPRPYEYPRP | 0.0169
149 | RRIRKRPPRLPRPRPRPYGGPRP | 0.0335
150 | RRIRKRPPRLPRPRPRPYIEPRP | -0.127
